Measurements as given in article PMC8371321, “A Novel Z-Ring Associated Protein ZapA-Like Protein (PA5407) From Pseudomonas aeruginosa Promotes FtsZ to Form Double Filaments” (Frontiers in Microbiology, 2021).

How the values were obtained:
[1] = biological target: T1, FtsZ from Pseudomonas aeruginosa (P. aeruginosa, UniProt P47204 1-394); test: light scattering; FtsZ with ZapAL, ZapA or a 1:1 mixture of both, mixed with 1 mM or 0.1 mM GTP, HMK buffer (50 mM HEPES pH 7.5, 5 mM MgAc, 100 mM KAc), room temperature, 340 nm; settings: both partners purified
T1 construct: FtsZ, Pseudomonas aeruginosa; pET15b containing the entire ftsZ gene (NdeI/BamHI); His6 tag removed with thrombin; The construct is from Chen et al., 2012; Residues of the vector may be left after the thrombin cut; Forms protofilaments with GTP; also called PaFtsZ; source: E. coli BL21(DE3), purified (Talon column, thrombin, source Q column)
T1 sequence (looked up): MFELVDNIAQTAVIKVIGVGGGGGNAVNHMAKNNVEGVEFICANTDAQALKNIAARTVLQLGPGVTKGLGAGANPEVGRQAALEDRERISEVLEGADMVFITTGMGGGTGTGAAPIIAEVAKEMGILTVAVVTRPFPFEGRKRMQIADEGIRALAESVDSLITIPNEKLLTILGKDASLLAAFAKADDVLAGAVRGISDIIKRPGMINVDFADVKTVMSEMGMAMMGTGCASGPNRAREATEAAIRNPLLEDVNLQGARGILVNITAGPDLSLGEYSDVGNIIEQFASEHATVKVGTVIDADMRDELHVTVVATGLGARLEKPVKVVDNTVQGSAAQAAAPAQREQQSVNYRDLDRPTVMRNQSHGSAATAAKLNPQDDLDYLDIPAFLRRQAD

[2] = biological target: T1, FtsZ from Pseudomonas aeruginosa; test: co-sedimentation; 15 uM FtsZ with 15 or 30 uM ZapAL, 1 mM GTP, 10 min at room temperature, 80,000 rpm for 30 min at 25 C (Beckman TLA100); pellet and supernatant by SDS-PAGE and ImageJ; settings: both partners purified

B1: ZapA (PA5227) from Pseudomonas aeruginosa (natural protein, P. aeruginosa, UniProt Q9HTW3 1-104, looked up)
chain: MSQSNTLTVQILDKEYCINCPDDERANLESAARYLDGKMREIRSSGKVIGADRVAVMAALNITHDLLHRKERLDQESSSTRERVRELLDRVDRALANPADAGEA
notes: pET15b containing the entire zapA gene (NdeI/BamHI); The construct is from Rahman et al., 2020; Stored and used with the His6 tag; also called PA5207; source: E. coli BL21(DE3), purified (Talon column)
binding result [1]: binds

B2: ZapA-Like protein (ZapAL; PA5407) from Pseudomonas aeruginosa (natural protein, P. aeruginosa, UniProt Q9HTF7 1-96, looked up)
chain: MSRDGVQVLSILGRDYSIRVPAGEERALADAAALLQAEVDANKRKFPYVTSNELVVLSALNLCARQLGANDGESPRLRAVEQRLEALVERIAGASG
notes: ZapA-Like protein ZapAL (PA5407), Pseudomonas aeruginosa, 96 amino acids; pET15b containing the entire zapAL gene (NdeI/BamHI); Stored and used with the His6 tag; also called ZapL; source: E. coli BL21(DE3), purified (Talon column)
stoichiometry N [2]: ~1 FtsZ:ZapAL (molar ratio)
